What was measured:
Test in all cases: Kd (EC50 corrected by depletion factor)
PARP12 = molecular target: T1, PARP12 (UniProt Q9H0J9)
T1 sequence: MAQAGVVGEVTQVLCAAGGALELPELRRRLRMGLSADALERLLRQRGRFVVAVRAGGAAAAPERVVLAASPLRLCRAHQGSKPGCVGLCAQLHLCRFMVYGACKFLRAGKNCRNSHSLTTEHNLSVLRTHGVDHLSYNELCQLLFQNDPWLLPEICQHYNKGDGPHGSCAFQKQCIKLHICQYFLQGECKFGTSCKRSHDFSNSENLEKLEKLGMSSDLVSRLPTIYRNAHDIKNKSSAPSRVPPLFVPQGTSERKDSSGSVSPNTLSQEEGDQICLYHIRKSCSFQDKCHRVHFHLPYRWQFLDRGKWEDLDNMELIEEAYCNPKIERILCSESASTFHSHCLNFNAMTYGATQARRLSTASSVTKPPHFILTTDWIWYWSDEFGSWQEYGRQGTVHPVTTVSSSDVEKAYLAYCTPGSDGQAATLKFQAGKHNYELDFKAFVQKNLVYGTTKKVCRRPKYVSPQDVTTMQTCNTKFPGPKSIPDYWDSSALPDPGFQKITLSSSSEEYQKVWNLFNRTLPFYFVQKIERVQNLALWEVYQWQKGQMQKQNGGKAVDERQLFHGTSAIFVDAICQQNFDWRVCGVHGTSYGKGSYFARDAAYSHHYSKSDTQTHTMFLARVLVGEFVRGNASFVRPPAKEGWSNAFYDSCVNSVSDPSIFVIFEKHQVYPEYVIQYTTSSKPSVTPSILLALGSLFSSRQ
Summary of the method: (§1)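 HEK293-FT lysate (2.5 mg protein/well) was treated with free RNA oligos (0 nM to 30 μM) for 1 h at 4°C, then with the same oligos on NHS-Sepharose beads for 30 min at 4°C. Bound proteins were quantified by label-free LC-MS/MS relative to the control. EC50 came from a four-parameter log-logistic fit, and Kd is EC50 times a protein-dependent depletion factor.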

PINX1 = molecular target: T2, PINX1 (UniProt Q96BK5)
T2 sequence: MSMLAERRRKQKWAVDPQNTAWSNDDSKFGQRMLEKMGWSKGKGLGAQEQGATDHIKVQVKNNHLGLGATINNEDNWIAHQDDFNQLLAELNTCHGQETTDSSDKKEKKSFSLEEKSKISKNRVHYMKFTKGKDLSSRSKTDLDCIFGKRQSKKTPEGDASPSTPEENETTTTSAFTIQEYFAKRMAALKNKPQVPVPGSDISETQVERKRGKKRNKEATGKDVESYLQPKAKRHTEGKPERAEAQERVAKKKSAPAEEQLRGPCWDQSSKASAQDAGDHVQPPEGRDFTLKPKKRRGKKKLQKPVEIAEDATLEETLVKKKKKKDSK
Summary of the method: as §1

TSNAX = molecular target: T3, TSNAX (UniProt Q99598)
T3 sequence: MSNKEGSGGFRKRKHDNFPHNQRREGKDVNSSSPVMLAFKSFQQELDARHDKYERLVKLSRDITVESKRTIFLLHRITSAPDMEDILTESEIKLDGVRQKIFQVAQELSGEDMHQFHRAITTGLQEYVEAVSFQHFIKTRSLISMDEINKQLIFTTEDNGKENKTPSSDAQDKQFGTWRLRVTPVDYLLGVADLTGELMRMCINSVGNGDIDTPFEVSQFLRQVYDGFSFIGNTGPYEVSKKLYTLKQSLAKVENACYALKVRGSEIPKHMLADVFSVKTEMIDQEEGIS
Summary of the method: as §1

SRSF4 = molecular target: T4, SRSF4 (UniProt Q08170)
T4 sequence: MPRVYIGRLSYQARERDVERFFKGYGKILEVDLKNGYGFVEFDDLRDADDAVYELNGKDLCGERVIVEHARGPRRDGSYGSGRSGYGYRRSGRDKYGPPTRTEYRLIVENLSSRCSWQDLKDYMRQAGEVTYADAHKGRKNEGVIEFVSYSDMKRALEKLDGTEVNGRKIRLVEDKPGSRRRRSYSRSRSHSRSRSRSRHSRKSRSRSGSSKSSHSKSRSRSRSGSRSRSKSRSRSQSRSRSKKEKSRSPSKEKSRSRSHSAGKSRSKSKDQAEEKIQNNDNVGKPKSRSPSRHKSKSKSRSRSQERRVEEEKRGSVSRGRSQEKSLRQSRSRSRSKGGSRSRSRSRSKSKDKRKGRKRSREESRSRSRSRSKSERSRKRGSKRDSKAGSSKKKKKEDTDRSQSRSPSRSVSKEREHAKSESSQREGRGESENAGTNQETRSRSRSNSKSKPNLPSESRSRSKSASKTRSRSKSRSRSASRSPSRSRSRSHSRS
Summary of the method: as §1

MRPL1 = MRPL1 (UniProt Q9BYD6)
Summary of the method: as §1

MRPS22 = MRPS22 (UniProt P82650)
Summary of the method: as §1

AAUAAA
Kd (PARP12): 5400 nM | Kd (PINX1): 360 nM | Kd (TSNAX): 5.96 nM

CUGUCCU
Kd (SRSF4): 312 nM | Kd (MRPL1): 80.4 nM

UAUUUAU
Kd (MRPS22): 57.8 nM

Source: the supplement of paper PMC6379048
